± gives the standard deviation of the averaged measurements.
How the values were obtained:
Saccharomyces cerevisiae [1] = assay: protein stability index of tFT-peptide fusion (C-terminal peptide) (PSI (0-1 scale)); higher = more stable (slower turnover)
Description: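 MPS profiling in S. cerevisiae of the tFT-X12 degron library: putative degron peptides plus stable controls, 12 aa, fused to the C-terminus of a sfGFP-mCherry timer. Cells are FACS-sorted into 8 mCherry/sfGFP bins and deep-sequenced. PSI runs from 0 (unstable) to 1 (stable). Backgrounds are wild type, das1Δ and doa10Δ at 30 °C, and wild type, das1Δ, cdc34-1 and cdc53-1 at 37 °C; 2-3 technical replicates each.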

Saccharomyces cerevisiae [2] = assay: as above; settings: genetic background: wild type; temperature: 30 C
[3] = genetic background: cdc34-1, temperature: 37 C
[4] = genetic background: cdc53-1, temperature: 37 C
[5] = genetic background: das1 deletion, temperature: 30 C
[6] = genetic background: das1 deletion, temperature: 37 C
[7] = genetic background: doa10 deletion, temperature: 30 C
[8] = genetic background: wild type, temperature: 30 C
[9] = genetic background: wild type, temperature: 37 C
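Also: PSI is a weighted mean of sequencing reads over stability bins, variants kept only with over 10 reads, mCherry proximal and sfGFP distal, peptide attached via GGGS linker.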

Sequence	protein stability index (Saccharomyces cerevisiae [1]; [3])	protein stability index (Saccharomyces cerevisiae [1]; [4])	protein stability index (Saccharomyces cerevisiae [1]; [5])	protein stability index (Saccharomyces cerevisiae [1]; [6])	protein stability index (Saccharomyces cerevisiae [1]; [7])	protein stability index (Saccharomyces cerevisiae [1]; [8])	protein stability index (Saccharomyces cerevisiae [1]; [9])	protein stability index (Saccharomyces cerevisiae [2])
WQVPYQRLAILF	0.603 ± 0.021	0.656 ± 0.017	0.555 ± 0.03	0.681 ± 0.016	0.215 ± 0.017	0.247 ± 0.02	0.346 ± 0.011	0.309 ± 0.017
WRCLHLVYLFFH	0.395 ± 0.016	0.438 ± 0.036	0.365 ± 0.048	0.531 ± 0.047	0.192 ± 0.0042	0.173 ± 0.017	0.303 ± 0.013	0.286 ± 0.0091
WRVRFRLLAGFC	0.347 ± 0.038	0.4126 ± 0.0035	0.296 ± 0.021	0.421 ± 0.0046	0.073 ± 0.016	0.107 ± 0.027	0.206 ± 0.016	0.173 ± 0.018
WSFPFFLLPFLF	0.393 ± 0.0059	0.352 ± 0.0092	0.44 ± 0.022	0.5103 ± 0.0048	0.25 ± 0.0094	0.211 ± 0.014	0.305 ± 0.021	0.296 ± 0.034
WSFYVVGRLLVN	0.33 ± 0.031	0.383 ± 0.013	0.287 ± 0.024	0.45 ± 0.014	0.106 ± 0.0031	0.132 ± 0.0018	0.154 ± 0.015	0.124 ± 0.0045
WSHVPLAPLSCF	0.43 ± 0.017	0.442 ± 0.0048	0.337 ± 0.023	0.477 ± 0.0073	0.287 ± 0.0032	0.315 ± 0.023	0.42596 ± 0.00033	0.4567 ± 0.0039
WSVCLLLLGRFC	0.523 ± 0.013	0.604 ± 0.011	0.455 ± 0.026	0.617 ± 0.026	0.347 ± 0.0005	0.381 ± 0.024	0.554 ± 0.026	0.466 ± 0.018
WTRAHWFFQFFV	0.334 ± 0.061	0.677 ± 0.051	0.667 ± 0.018	0.739 ± 0.015	0.0772 ± 0.00094	0.0685 ± 0.0097	0.0858 ± 0.015	0.171 ± 0.0033
WVVVLFAYRGLR	0.57 ± 0.026	0.519 ± 0.12	0.362 ± 0.031	0.57 ± 0.038	0.323 ± 0.02	0.379 ± 0.037	0.559 ± 0.041	0.458 ± 0.088
WYMYVRMASFLV	0.534 ± 0.058	0.634 ± 0.05	0.489 ± 0.026	0.603 ± 0.018	0.302 ± 0.0084	0.287 ± 0.027	0.44 ± 0.0072	0.375 ± 0.026
YCDPSLIWLYLM	0.57 ± 0.012	0.714 ± 0.018	0.61 ± 0.021	0.727 ± 0.0077	0.1768 ± 0.0011	0.18 ± 0.012	0.275 ± 0.031	0.249 ± 0.02
YFICLSLVLFSY	0.163 ± 0.058	0.274 ± 0.05	0.215 ± 0.024	0.351 ± 0.032	0.202 ± 0.02	0.179 ± 0.03	0.306 ± 0.021	0.303 ± 0.069
YIILLSRKCAFC	0.573 ± 0.017	0.65 ± 0.013	0.51 ± 0.018	0.645 ± 0.015	0.401 ± 0.011	0.396 ± 0.024	0.586 ± 0.029	0.503 ± 0.017
YKLRAVFVCSVT	0.575 ± 0.06	0.6329 ± 0.0043	0.507 ± 0.021	0.6427 ± 0.0023	0.311 ± 0.018	0.34 ± 0.025	0.445 ± 0.028	0.392 ± 0.037
YLYSSSPWILHG	0.673 ± 0.011	0.748 ± 0.035	0.664 ± 0.015	0.748 ± 0.033	0.274 ± 0.027	0.287 ± 0.044	0.52 ± 0.023	0.383 ± 0.045
YTVRRVWLVRSR	0.445 ± 0.0056	0.521 ± 0.029	0.344 ± 0.032	0.5005 ± 0.0038	0.312 ± 0.012	0.325 ± 0.038	0.4934 ± 0.0033	0.423 ± 0.0074
YVGILCTGILTV	0.522 ± 0.024	0.54 ± 0.045	0.405 ± 0.026	0.564 ± 0.0085	0.38 ± 0.011	0.41 ± 0.017	0.549 ± 0.013	0.438 ± 0.0072
YVSSCLLWLCFV	0.484 ± 0.043	0.551 ± 0.018	0.421 ± 0.023	0.5591 ± 0.0006	0.28 ± 0.0085	0.287 ± 0.023	0.457 ± 0.011	0.376 ± 0.034
YYVIFHLFSFLI	0.427 ± 0.025	0.478 ± 0.0057	0.383 ± 0.033	0.533 ± 0.048	0.288 ± 0.0055	0.293 ± 0.022	0.493 ± 0.026	0.392 ± 0.094

Reference: the supplement of paper PMC10724198
